According to publication PMC7549369:

Tests used:
[1] = target: SipL-3×FLAG (Clostridioides difficile) (UniProt Q181G7); assay: co-IP; SipL-3×FLAG immunoprecipitated with anti-FLAG magnetic beads from cleared lysates of sporulating C. difficile (22 h in the legend, 24 h in the methods), eluted with FLAG peptide; untagged SpoIVA detected by Western blot; SpoIVA/SipL ratio in the elution set to 1 for WT
[2] = target: SipL (bacterial two-hybrid fusion from pKNT25-sipL) (Clostridioides difficile) (UniProt Q181G7); assay: two-hybrid; bacterial adenylate cyclase two-hybrid (BACTH) in E. coli BTH101; pKNT25-sipL with pUT18C-spoIVA variants; plates with 0.5 mM IPTG, 40 h at 30°C; β-galactosidase activity in Miller units

Substance: SpoIVA D102A, untagged, in sporulating C. difficile (from UniProt Q182W3 1-491) (natural protein)
- fold more coimmunoprecipitated with SipL-3×FLAG relative to wild-type SpoIVA [1]: 1.8 fold

Substance: SpoIVA K35A, untagged, in sporulating C. difficile (from UniProt Q182W3 1-491) (natural protein)
- fold less coimmunoprecipitated with SipL-3×FLAG relative to wild-type SpoIVA [1]: 3 fold

Substance: SpoIVA K35E, untagged, in sporulating C. difficile (from UniProt Q182W3 1-491) (natural protein)
- fold less coimmunoprecipitated with SipL-3×FLAG relative to wild-type SpoIVA [1]: 10 fold

Substance: SpoIVA K35E (bacterial two-hybrid fusion, pUT18C) (from UniProt Q182W3 1-491) (natural protein)
- fold reduction of binding to SipL relative to wild-type SpoIVA (β-galactosidase activity) [2]: 100 fold

Substance: SpoIVA T75A (bacterial two-hybrid fusion, pUT18C) (from UniProt Q182W3 1-491) (natural protein)
- fold increase of binding to SipL relative to WT SpoIVA (β-galactosidase activity) [2]: 2 fold

Substance: SpoIVA T75A, untagged, in sporulating C. difficile (from UniProt Q182W3 1-491) (natural protein)
- fold more coimmunoprecipitated with SipL-3×FLAG relative to wild-type SpoIVA [1]: 1.5 fold

Substance: SpoIVA K35A (bacterial two-hybrid fusion, pUT18C) (from UniProt Q182W3 1-491) (natural protein)
- fold reduction of binding to SipL relative to wild-type SpoIVA (β-galactosidase activity) [2]: 3 fold
